{"source": "patent US20240409617A1", "target": "Human FcRn, biotinylated (human) (UniProt P55899)"}
{"substance": "Atezolizumab (antibody)", "values": [{"measurement": "Kd", "value": 19.7, "unit": "nM"}, {"measurement": "koff", "value": 0.00877, "unit": "s⁻¹"}, {"measurement": "kon", "value": 445000, "unit": "M⁻¹ s⁻¹"}]}
